# Reference: patent US20110020432A1, “COMPOSITIONS AND METHODS OF USE FOR POST-RADIATION PROTECTION” (TERAPIO CORPORATION, priority 2009, published 2011)
# B1: RLIP76 protein: ubiquitous multi-specific efflux pump protein; human sequence of 655 amino acids, GenBank NP—006779; recombinant (protein, UniProt Q15311 2-655, looked up)
# RalA-binding protein 1: TECFLPPTSSPSEHRRVEHGSGLTRTPSSEEISPTKFPGLYRTGEPSPPHDILHEPPDVVSDDEKDHGKKKGKFKKKEKRTEGYAAFQEDSSGDEAESPSKMKRSKGIHVFKKPSFSKKKEKDFKIKEKPKEEKHKEEKHKEEKHKEKKSKDLTAADVVKQWKEKKKKKKPIQEPEVPQIDVPNLKPIFGIPLADAVERTMMYDGIRLPAVFRECIDYVEKYGMKCEGIYRVSGIKSKVDELKAAYDREESTNLEDYEPNTVASLLKQYLRDLPENLLTKELMPRFEEACGRTTETEKVQEFQRLLKELPECNYLLISWLIVHMDHVIAKELETKMNIQNISIVLSPTVQISNRVLYVFFTHVQELFGNVVLKQVMKPLRWSNMATMPTLPETQAGIKEEIRRQEFLLNCLHRDLQGGIKDLSKEERLWEVQRILTALKRKLREAKRQECETKIAQEIASLSKEDVSKEEMNENEEVINILLAQENEILTEQEELLAMEQFLRRQIASEKEEIERLRAEIAEIQSRQQHGRSETEEYSSESESESEDEEELQIILEDLQRQNEELEIKNNHLNQAIHEEREAIIELRVQLRLLQMQRAKAEQQAQEDEEPEWRGGAVQPPRDGVLEPKAAKEQPKAGKEPAKPSPSRDRKETSI
# Legend:
# [1] = reported in the scientific literature; cited from earlier work
# [2] = test system: mice; settings: whole animal studies; reported DRF; cited from earlier work
# [3] = test system: wild-type (+/+) and homozygous (−/−) RIP1 mice; assay: Survival of wild-type and RIP1 knockout mice after X-irradiation, RLIP76 liposomes i.p.; format: in vivo
# Method: FIG. 5. Effect of RLIP76 on survival after higher doses of X irradiation. Four wild-type (+/+) RIP1 mice and four homozygous (−/−) mice were each exposed to 750 cGy X irradiation and treated with control liposomes administered by i.p. injection (triangles, homozygous RIP1 mice; diamonds, wild-type RIP mice), or 400 μg RLIP76 liposomes administered by i.p. injection (squares, homozygous RIP1 mice; circles, wild-type RIP1 mice), given 12 hours after exposure.
# As disclosed in U.S. Ser. No. 11/741,447, C57B mice that carry both copies of the RIP1 (mouse version of RLIP76) gene (wild-type; +/+), one copy of the RIP1 gene (heterozygous; +/−), or no copies of the RIP1 gene (homozygous; −/−) were created using Cre-Lox technology that can selectively suppress genes (Lexicon Genetics, Incorporated, The Woodlands, Tex.). Western blot analysis of tissues from homozygous RIP 1 knockout mice was performed after i.p. injection of RLIP76-liposomes. […]
# If loss of RIP1 was the major determining factor in this acquired radiation sensitivity, replacement of this deficit should reverse radiation […]. […] Liposomes were prepared in sufficient quantities and administered via intraperitoneal (i.p.) injection to homozygous RIP1 mice. […]
# [4] = test system: C57BL6/albino mice; assay: Survival after whole body X-irradiation, oral RLIP76 proteoliposomes (dose and time response); format: in vivo
# Method: In order to investigate whether RLIP76 could be effective when delivered more than 24 hours after radiation exposure, a series of studies were conducted to explore the protective benefit of RLIP76 when given at varying doses, exposure levels, and times after exposure. All mice were C57BL6/albino strain, the strain most commonly used for radiation effect models. Exposure was delivered by whole body X-irradiation with a Varian Clinac Linear accelerator (2100C) at the Texas Cancer Center (Arlington, Tex.). A 6-MeV photon beam was used at a rate of 400 cGy/minute. Mice were isolated to one side of their cage on top of 1.5 cm of superflab bolus and the field of treatment centered on them. Total dose was split into two fractions, anterior and posterior, by rotating the accelerator gantry 180 degrees. Unless otherwise specified, all experiments were performed on six mice per group.
# Dose and time dependency was investigated over a range of radiation exposures. Initially, six groups of wild-type mice were exposed to 500 cGy of radiation, and then treated with no RLIP76 proteoliposomes (control) or various dosages of RLIP76 proteoliposomes given at various times after the radiation exposure. […]
molecule,measurement,setting,value
"Cc1cc(C(C)(C)C)c(O)c(C(C)(C)C)c1 [BHT, butylated hydroxytoluene]",radioprotective effect on its own,[1],radioprotective effect
"CC1(C)CC(O)CC(C)(C)N1[O] [tempol, 4-hydroxy-2,2,6,6-tetramethylpiperidinyloxy]",dose-reduction factor (DRF),[2],1.3
"CC1=NN(c2ccccc2)C(=O)C1 [edaravone, 3 methyl-1-phenyl-2-pyrazolin-5-one]",dose-reduction factor (DRF),[2],1.3
B1,survival as compared with RIP1+/+ mice,"[3]; RIP1−/− mice supplemented with RLIP76, 750 cGy",significantly improved survival
same,reversal of radiation sensitivity,"[3]; mice genetically deficient in RLIP76 protein, supplementation by intravenous or oral administration",can be reversed
same,rescue with delayed first dose,[4]; initial dose given a full 24 hours or more after the radiation exposure,significant rescue
same,increase in survival,"[4]; wild-type mice, radiation dose that normally results in complete lethality by day 30 (500 cGy), 2 doses of 100 micrograms, oral",200%
